Assay results published in patent US10946092 (BEIJING MABWORKS BIOTECH, dated 2021).

Columns and labels:
[1] = target: T1, monkey (rhesus) LAG3 expressed on HEK293A cells (monkey (rhesus), UniProt A0A5F8A874 23-533); experiment: FACS on HEK293A/rh LAG3 cells
T1 construct: whole, on cells; also called HEK293A/rh LAG3
T1 sequence: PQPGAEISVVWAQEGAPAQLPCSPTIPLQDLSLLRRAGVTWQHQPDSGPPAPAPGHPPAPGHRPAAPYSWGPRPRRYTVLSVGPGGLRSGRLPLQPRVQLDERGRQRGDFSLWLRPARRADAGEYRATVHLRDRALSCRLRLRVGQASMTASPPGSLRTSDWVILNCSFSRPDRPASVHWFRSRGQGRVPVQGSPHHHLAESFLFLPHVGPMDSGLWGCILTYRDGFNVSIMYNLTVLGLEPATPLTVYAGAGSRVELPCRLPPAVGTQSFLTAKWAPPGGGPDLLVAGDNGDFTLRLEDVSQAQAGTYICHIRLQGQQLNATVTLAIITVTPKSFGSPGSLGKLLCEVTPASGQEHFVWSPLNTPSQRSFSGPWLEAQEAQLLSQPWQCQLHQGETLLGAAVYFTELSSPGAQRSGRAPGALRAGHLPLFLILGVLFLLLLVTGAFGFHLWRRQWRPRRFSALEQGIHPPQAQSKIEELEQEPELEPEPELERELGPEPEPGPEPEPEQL
Experimental: (§1) Briefly, 10^5 HEK293A cells in 50 μl PBS buffers were seeded into each well of the 96-well plates and then added with 50 μl of serially diluted anti-LAG3 antibodies (5-fold dilution, starting from 40 μg/ml). After incubated at 4° C. for 1 hour, plates were washed 3 times with PBST. Then, an APC coupled Goat Anti-Mouse IgG (BioLegend, US, Cat #: 405308) diluted 500× was added to the plates. After incubation at 4° C. for 1 hour, the plates were washed with PBS for 3 times and then cell fluorescence was monitored using a FACS machine (BD).

[2] = target: T2, mouse LAG3 expressed on HEK293A cells (mouse, UniProt Q61790 24-521); experiment: FACS on HEK293A/mouse LAG3 cells
T2 construct: whole, on cells; also called HEK293A/mouse LAG3
T2 sequence (looked up): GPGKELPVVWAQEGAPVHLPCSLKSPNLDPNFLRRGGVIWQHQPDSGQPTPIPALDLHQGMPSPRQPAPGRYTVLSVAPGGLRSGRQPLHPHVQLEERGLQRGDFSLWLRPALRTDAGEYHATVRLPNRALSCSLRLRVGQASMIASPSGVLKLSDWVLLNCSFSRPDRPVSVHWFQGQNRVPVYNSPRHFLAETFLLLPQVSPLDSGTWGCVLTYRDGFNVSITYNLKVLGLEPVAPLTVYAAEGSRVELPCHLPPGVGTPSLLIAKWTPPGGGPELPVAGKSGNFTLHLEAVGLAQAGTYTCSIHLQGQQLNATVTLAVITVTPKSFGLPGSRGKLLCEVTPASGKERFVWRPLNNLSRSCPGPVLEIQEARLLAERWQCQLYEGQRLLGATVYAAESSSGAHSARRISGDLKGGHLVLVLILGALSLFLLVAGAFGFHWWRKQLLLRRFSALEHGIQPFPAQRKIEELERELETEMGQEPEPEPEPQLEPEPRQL
Experimental: as §1

[3] = target: T3, hLAG-3-hIg fusion protein (human LAG-3 extracellular domain fused to human Fc); Sino Biological, Cat #: … (human, UniProt P18627 23-450); experiment: FACS blocking assay; antibody titrated against 10 µg/ml hLAG-3-hIg binding to MHC II on Daudi cells
T3 construct: extracellular domain; Bought protein; also called LAG3 fusion protein; human LAG3(ECD)-hFc; not shown: human Fc
T3 sequence (looked up): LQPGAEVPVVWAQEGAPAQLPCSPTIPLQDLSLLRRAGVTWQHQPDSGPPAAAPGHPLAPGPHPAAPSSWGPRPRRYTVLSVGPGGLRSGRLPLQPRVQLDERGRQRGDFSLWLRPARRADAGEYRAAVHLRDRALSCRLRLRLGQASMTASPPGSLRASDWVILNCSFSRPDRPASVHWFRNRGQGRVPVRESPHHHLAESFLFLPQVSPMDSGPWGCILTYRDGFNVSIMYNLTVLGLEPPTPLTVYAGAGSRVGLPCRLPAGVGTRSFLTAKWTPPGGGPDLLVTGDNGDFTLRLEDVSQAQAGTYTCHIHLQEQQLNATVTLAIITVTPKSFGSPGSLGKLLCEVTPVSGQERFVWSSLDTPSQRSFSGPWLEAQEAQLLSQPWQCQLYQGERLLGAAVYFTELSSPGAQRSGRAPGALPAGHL
Experimental: The mixtures were then added and incubated with 2 ×10^5 Daudi cells in 100 μl PBS buffer at 4° C. for 30 minutes. The cells were pelleted (three minutes, 400×g), washed twice with 1×PBS buffer and repelleted, and added and incubated with a recombinant PE-labeled F(ab')2 anti-hIgG Fc (1:200, Life Technologies, USA, Cat #: H10104) at 4° C. for 30 minutes, and washed once with 1×PBS. Analysis of […] binding was carried out with the FACS flow cytometer (BD Bioscience).

B1: mouse anti-LAG3 monoclonal antibody 101F4 (antibody, V domains shown)
VH: EVQLEQSGAELVRPGASVTLSCKASGYTFTDYEMHWVKQTPVYGLEWMGAIDPETGGIVYNQRFKGKAILTADKSSSTAYMELRSLTSEDSAVYYCTGAGWGYWGQGTTLTVSS
VL: DIVITQSPSSMYASLGERVTITCKASQDINSYLSWFQQKPGKSPKTLIYRANRLLDGVPSRFSGSGSGQDYSLTISSLEFEDMGLYYCLQYDEFPFTFGSGTKLEIK
EC50 [1]: 0.39 nM | binding result [2]: no binding (tested: starting from 40 µg/ml) | EC50 [3]: 13 nM

B2: mouse anti-LAG3 monoclonal antibody 134G10 (antibody, V domains shown)
VH: EVQLVESGGDLVKPGGSLKLSCAASGFTFSSFGMSWVRQTPDKRLEWVGIISSGGTYTFYPDILKGRFTISRDNAKNTLYLQMSSLKSEDTAMYYCARVYSDYDGRFDYWGQGTTLTVSS
VL: DIVMTQSPSSLSVSAGEKVTMNCKSSQSLLNSGNQKNYLAWYQQKPGQPPKLLIYGASTRESGVPDRFTGSGSGTDFTLTISSVQAEDLAVYYCQNDHSYPLTFGAGTKLELK
EC50 [1]: 6.5 nM | binding result [2]: no binding (tested: starting from 40 µg/ml) | EC50 [3]: 9.3 nM
